We go through 4 molecules from patent US20240344241A1, “PROTEINACEOUS MOLECULES AND USES THEREFOR” (THE UNIVERSITY OF QUEENSLAND, priority 2021, published 2024).

Assay [1] deals with T1, human β-factor XIIa (human), P00748.
T1 chain 1: NGPLSCGQR
T1 chain 2: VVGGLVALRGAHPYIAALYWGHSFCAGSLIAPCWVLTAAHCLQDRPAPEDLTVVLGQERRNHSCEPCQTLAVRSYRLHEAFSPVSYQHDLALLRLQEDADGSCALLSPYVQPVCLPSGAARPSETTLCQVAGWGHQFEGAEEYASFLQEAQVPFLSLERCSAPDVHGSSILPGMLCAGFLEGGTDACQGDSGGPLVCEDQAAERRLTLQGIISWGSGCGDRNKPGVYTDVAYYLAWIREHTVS
The experiment in a line: competitive protease inhibition assay, 0.5 nM FXIIa, Boc-QGR-MCA substrate (unit as printed; probably pM).

Assay [2] has the same target. The experiment in a line: competitive protease inhibition assay, Ac-QRFR-pNA substrate, Morrison Ki.
Assay [3] concerns the target T2, human plasmin (human), P00747.
T2 chain: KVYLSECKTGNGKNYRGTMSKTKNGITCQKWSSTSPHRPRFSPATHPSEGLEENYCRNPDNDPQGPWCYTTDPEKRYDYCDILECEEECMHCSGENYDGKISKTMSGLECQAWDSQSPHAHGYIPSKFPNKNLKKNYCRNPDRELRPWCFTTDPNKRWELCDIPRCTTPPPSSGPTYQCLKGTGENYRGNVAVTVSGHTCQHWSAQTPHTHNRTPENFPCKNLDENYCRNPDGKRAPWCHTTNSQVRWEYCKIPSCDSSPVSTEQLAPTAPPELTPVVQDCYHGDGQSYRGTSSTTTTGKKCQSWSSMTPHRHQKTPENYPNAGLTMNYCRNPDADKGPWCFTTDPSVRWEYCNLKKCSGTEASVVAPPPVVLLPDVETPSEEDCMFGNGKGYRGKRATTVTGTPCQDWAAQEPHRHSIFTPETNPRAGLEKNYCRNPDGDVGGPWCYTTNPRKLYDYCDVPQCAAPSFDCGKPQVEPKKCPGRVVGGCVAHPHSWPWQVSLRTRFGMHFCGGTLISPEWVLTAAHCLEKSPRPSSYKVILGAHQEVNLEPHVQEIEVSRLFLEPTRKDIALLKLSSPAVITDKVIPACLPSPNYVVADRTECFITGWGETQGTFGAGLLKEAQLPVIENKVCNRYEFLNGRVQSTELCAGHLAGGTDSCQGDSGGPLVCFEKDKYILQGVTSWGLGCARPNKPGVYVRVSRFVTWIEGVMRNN
Briefly: competitive protease inhibition assay (selectivity panel), human plasmin, Ac-RM(O2)YR-pNA.

In assay [4] the target is T3, recombinant human matriptase (human), Q9Y5Y6.
T3 chain: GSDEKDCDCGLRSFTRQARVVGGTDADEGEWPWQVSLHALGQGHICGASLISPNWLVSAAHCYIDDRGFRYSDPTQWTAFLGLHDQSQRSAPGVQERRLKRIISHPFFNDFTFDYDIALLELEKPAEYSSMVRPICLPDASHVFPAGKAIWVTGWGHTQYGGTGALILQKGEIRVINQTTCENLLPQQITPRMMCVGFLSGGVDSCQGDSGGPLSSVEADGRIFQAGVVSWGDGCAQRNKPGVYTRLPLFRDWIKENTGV
Briefly: competitive protease inhibition assay (selectivity panel), human matriptase, Boc-QAR-MCA.

The target of assay [5] is human cationic trypsin (human), P07477. The experiment in a line: competitive protease inhibition assay (selectivity panel), human trypsin, Boc-VPR-MCA.
In assay [6] the target is bovine trypsin (bovine), P00760. The experiment in a line: SPR, bovine trypsin. (In general: In SPR one partner is held on a chip, and binding of the other changes the refractive index at the surface.)
Assay [7] concerns the target T1, human β-factor XIIa (human), P00748. Briefly: competitive protease inhibition assay, ratio of Ki values.
Assay [8] shares this target. The experiment in a line: SPR, ratio of KD values.
Assay [9] deals with bovine trypsin (bovine), P00760. The experiment in a line: SPR, ratio of KD values.
Assay [10] concerns the target T4, FXIIa in human plasma (generated by kaolin activation of FXII in aPTT assays) (human), P00748.
T4 chain: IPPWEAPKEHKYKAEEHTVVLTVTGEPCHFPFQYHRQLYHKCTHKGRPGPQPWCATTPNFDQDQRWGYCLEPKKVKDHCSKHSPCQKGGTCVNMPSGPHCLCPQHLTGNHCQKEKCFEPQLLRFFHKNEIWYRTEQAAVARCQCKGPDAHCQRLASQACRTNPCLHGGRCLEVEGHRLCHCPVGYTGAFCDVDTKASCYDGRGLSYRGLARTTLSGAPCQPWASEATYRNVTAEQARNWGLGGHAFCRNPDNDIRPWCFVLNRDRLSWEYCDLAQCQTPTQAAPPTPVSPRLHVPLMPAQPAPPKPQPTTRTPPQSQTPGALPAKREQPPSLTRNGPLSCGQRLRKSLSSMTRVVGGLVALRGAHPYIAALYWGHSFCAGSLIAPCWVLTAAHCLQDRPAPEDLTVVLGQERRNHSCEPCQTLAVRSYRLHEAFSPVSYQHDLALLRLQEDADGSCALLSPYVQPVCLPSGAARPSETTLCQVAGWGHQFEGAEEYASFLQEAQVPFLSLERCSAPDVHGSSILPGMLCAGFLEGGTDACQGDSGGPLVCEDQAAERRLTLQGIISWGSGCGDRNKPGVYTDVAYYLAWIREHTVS
The experiment in a line: cell-based or functional assay.

The target in assay [11] is T1, human β-factor XIIa (human), P00748. Briefly: SPR (Biacore T200), biotinylated human β-FXIIa captured on chip, peptide as analyte, 1:1 model.
For assay [12] the target is unchanged. Briefly: competitive protease inhibition assay.

Chain of bovine trypsin (bovine), P00760 (P00760 24-246): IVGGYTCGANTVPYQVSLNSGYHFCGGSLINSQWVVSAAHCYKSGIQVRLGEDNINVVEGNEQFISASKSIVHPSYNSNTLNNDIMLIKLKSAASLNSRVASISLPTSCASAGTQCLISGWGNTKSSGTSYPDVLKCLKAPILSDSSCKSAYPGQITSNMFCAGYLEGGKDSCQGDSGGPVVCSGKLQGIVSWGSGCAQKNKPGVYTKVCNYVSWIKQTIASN

As a reminder, the Ki is the equilibrium dissociation constant of an inhibitor or competing ligand from its target. On to GGICPRFGRLCRRDSDCPGACICRATRFCGSGSD (modifications not checked) [Cyclic MCoFx6], for which the inhibitory constant (Ki) in assay [1] worked out at 1.09 nM.
In the case of DGGVCPKILKKCRRDSDCPGACICRATRFCGSGS (modifications not checked) [cMCoTI-fxL5], the Ki worked out at 66 nM in assay [2], 31 nM in [3], 17 nM in assay [4] and 0.08 nM in [5].
The Kd is the concentration at which binding is half-saturated. A low value points to a tighter complex. Take DGGICPRIGRLCRRDSDCPGACICRATRFCGSGY (modifications not checked) [MCoFx1 cyclic]: the Ki in assay [2] worked out at 0.37 nM; in assay [4], 9120 nM; in [5], 1110 nM. Moreover, the Kd in [6] was 31.5 nM; in assay [11] it was 0.9 nM. For the same molecule, in assay [7], the fold more potent than MCoTI-II is 350 fold. In addition, the fold higher affinity than MCoTI-II in assay [8] was 60 fold. Besides, the fold lower affinity than MCoTI-II in [9] turned out to be 300 fold. The EC2× (inhibitor concentration that doubles the clotting time), aPTT assay in human plasma in assay [10] amounted to 702 nM.
In assay [12], RICPRIGRLCRRDSDCPGACICRATRFCG (modifications not checked) [acyclic variant of MCoFx1 based on a minimized knottin scaffold (29 amino acids)] had a Ki of 1.4 nM.
